The text below walks through data of publication PMC5103072, “Cryo-EM study of start codon selection during archaeal translation initiation” (Nature Communications, 2016).

The assay addresses T1, Pa-aIF2γ (γ-subunit of archaeal translation initiation factor 2 from Pyrococcus abyssi), native version (Pyrococcus abyssi, UniProt Q9V1G0 1-411).
T1 construct: aIF2 γ-subunit from Pyrococcus abyssi, native (untagged) version; Stood in the assay as part of the aIF2 heterotrimer with GDPNP and Met-tRNA; The deposited models use the S. solfataricus ternary complex (PDB 3V11) as the fitted component; source: cells overproducing the subunit, mixed with cells overproducing α and β; heterotrimer purified (heating at 80 °C, Q-Hiload, S-Hiload, Superdex 200)
T1 sequence (looked up): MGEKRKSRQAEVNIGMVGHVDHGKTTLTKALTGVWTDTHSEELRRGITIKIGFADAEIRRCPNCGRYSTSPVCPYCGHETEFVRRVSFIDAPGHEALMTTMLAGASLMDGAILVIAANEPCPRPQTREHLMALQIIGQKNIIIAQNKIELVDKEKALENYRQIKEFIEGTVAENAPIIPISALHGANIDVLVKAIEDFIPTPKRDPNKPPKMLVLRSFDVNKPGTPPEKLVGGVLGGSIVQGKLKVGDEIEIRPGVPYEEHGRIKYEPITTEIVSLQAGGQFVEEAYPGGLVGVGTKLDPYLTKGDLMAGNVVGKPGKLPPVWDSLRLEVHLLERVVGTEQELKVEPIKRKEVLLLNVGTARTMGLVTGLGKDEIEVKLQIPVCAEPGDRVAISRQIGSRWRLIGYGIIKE
The experiment in a line: cryo-EM structure; full 30S initiation complex (Pa-30S, synthetic mRNA, Met-tRNAfMet A1-U72, GDPNP, Pa-aIF1, Pa-aIF1A, Pa-aIF2) assembled at 51 °C in IC buffer (10 mM Hepes pH 7.5, 100 mM NH4Cl, 10 mM magnesium acetate, 3 mM 2-mercaptoethanol), purified on Talon; class IC0-P_(REMOTE), tRNA out of the P site, 5.34 Å overall resolution; known structures of homologous components fitted. The following applies: both partners purified.

B1: Pa-aIF2α (α-subunit of archaeal translation initiation factor 2 from Pyrococcus abyssi), N-terminally tagged version (natural protein, UniProt Q9V0E4 1-275, looked up)
chain: MPRRAREYPEEGEFVVATVKRIHNYGAFLELDEYPGKEAFMHISEVASTWVRNIRDYLKEGQKVVAKVIRVDPRKGHIDLSLRRVTQQQRKAKLQEFKRAQKAENLLKLAAEKLGKDFETAWREVWVPLEEEWGEVYAAFEDAAKDGIDVLKGHVPDEWLPVLKEIIDNYVEVPTVTIDAEFEITVPKPNGVEIIKEALIRARDRANKEKDVEVKFTYLGAPRYRIDITAPDYYKAEEVLESIAEEILRVIKEAGGEATLLRKEKRIKKVKKRKK
notes: aIF2 α-subunit from Pyrococcus abyssi, N-terminally tagged version; domains 1 and 2 (aIF2α-D12) and domain 3 (aIF2α-D3); the complex was purified on a Talon column by it; Stood in the assay as part of the aIF2 heterotrimer; source: cells overproducing the subunit, mixed with cells overproducing β and γ; heterotrimer purified (heating at 80 °C, Q-Hiload, S-Hiload, Superdex 200)
For the molecule B1, the binding result is “binds”.
